Paper doi:10.1101/2025.07.10.664194

Columns and labels:
Assay in all cases: mass photometry
[1] = target: PaAbpA (not stated (prefix Pa))
[2] = target: BtHamA (not stated (prefix Bt))
EcPD-T4-8 (E. coli) = target: EcPD-T4-8 (E. coli)
[3] = target: PfOloA (not stated (prefix Pf))
[4] = target: EcHna (E. coli (from the prefix Ec))
EcPD-T4-1 (E. coli) = target: EcPD-T4-1 (E. coli)

PaAbpB (natural protein)
stoichiometry N (AbpA:AbpB (1:1)) [1]: 1

BtHamB (natural protein)
stoichiometry N (HamA:HamB (1:1)) [2]: 1

EcPD-T4-8 (natural protein)
stoichiometry N (EcPD-T4-8 (E. coli)): 4

PfOloB (natural protein)
stoichiometry N (OloA:OloB (2:2)) [3]: 1

EcHna (natural protein)
stoichiometry N [4]: 2

EcPD-T4-1 (natural protein)
stoichiometry N (EcPD-T4-1 (E. coli)): 2
